Measurements as given in the DeepSol protein solubility set.

experiment: soluble on expression in E. coli; label from the status in PepcDB or PDB records

| Sequence | soluble on expression in E. coli |
| --- | --- |
| MVGLLVEDTIDDQGWNRKAYEGLLNIHSNLDVDVVLEEGVNSEQKAHRRIKELVDGGVNLIFGHGHAFAEYFSTIHNQYPDVHFVSFNGEVKGENITSLHFEGYAMGYFGGMVAASMSETHKVGVIAAFPWQPEVEGFVDGAKYMNESEAFVRYVGEWTDADKALELFQELQKEQVDVFYPAGDGYHVPVVEAIKDQGDFAIGYVGDQADLGGSTILTSTVQHVDDLYVLVAKRFQEGKLESGNLYYDFQDGVVSLGEFSSVVPDEVREQITDAISTYIQTGQFPHEEER | soluble |
| MVHSNGAITSTILKARHADVVRKTSLHHANDLTLIDLVLNVQRLLALPSDANFVLKYKDEEGDLVTLAEDSDLLLALHTSGATLDVTVVVDSRAREAVHDVQKQVEQIKLDVGKLLGALSALDVAQIAEQSNTSVANLSAPKQSHHDNIVFQKSFEAAPPSPVPSEKAELPATIQPSVHEQFNHRPAHVEEEIPLENHYAPPPHQQIPDDLNTSFSSQPPPPIEQFGAIPPPNATIPSFPTSNAASPPVQEFAPPPPQQQQQQFQAPPPPMASHSSISSTPVQQQGFAPPQQFGGPPPSGPPSEYGGYAPPQQQQQQFGAPPPQGAPQQGFGAPPQGPPQGGPPQGSFGAPPPQQFHAPSPQSFGGPPPPVSSAPGNFAPPPQSGPPGAFAPPPSAFGAPQGPGGPGGYGPPPPGGPGAPGSYGPPQGGPGGFGPPPPGGPGAYGPPPTGFPPVGAPPPGAAGAPGGNPFARGPSATGYRQSPYQQ | not soluble |
| MVIHQIKILQSVATSIVEGGRGVTGTPFPNQPDKPLKLYEFEGSPFSRRVREVLTLLNLDVEIYPCPKGGQKYRAIVKEKGGKLQFPFLIDENTGDQLYESQKIIHHLFKHYGKTGHTPEKYQHYPKIPVIGLIATLLNAARGVWVNKKIIHRAAPEQLLELWSFEASPYSRVVRDILTELEIPYVLHNVSKERWQDMGPAILRLKPGPYIPLAGGKRDKMLPMMQGKMQVPYLVDPNTGIHLFESAQIVAYLKKQYGEV | not soluble |
| MVIIMQFYKEENFKEMHGLRVPEDWEVVRIGDFIKYIKGKKPAVMVDEELEGYYPYLSTEYLRDGIASKFVKITNKEIIVNENDILLLWDGSNAGEIFLGKKGILSSTMVKLEQKNKIMDDLYLFYSLKLKESFLKSQTKGTGIPHVDKKIFENIKIPLPPLEEQKQIAKILSDFDNLIGTINKQIEVLNKAKKGMMKKLFTKGVFEHKSFKKSEIGEIPEDWEVVKLKEVVDIQSGKYFKYSEFCENGVKCLKIDNVGFGKIFWETVSFLPEDYLNKYPQLVLKSGDIVLALNRPIIGGKIKIGILKDIDEPAILYQRVGRFIFKSEKIDKQFLFYLLMSEYFKKELSKLLIGTDQPYIRTPVLLNIKIPLPHLEEQKAMAERLKSIDNLIEIKRKEKEQIEKAKKKIMNLLLTGKIRVKNLNF | soluble |
| MVINCAFIGFGKSTTRYHLPYVLNRKDSWHVAHIFRRHAKPEEQAPIYSHIHFTSDLDEVLNDPDVKLVVVCTHADSHFEYAKRALEAGKNVLVEKPFTPTLAQAKELFALAKSKGLTVTPYQNRRFDSCFLTAKKAIESGKLGEIVEVESHFDYYRPVAETKPGLPQDGAFYGLGVHTMDQIISLFGRPDHVAYDIRSLRNKANPDDTFEAQLFYGDLKAIVKTSHLVKIDYPKFIVHGKKGSFIKYGIDQQETSLKANIMPGEPGFAADDSVGVLEYVNDEGVTVREEMKPEMGDYGRVYDALYQTITHGAPNYVKESEVLTNLEILERGFEQASPSTVTLAKLEHHHHHH | soluble |
| MVINQTFLQNNVMDKCNDKRKRGERDWDCPAEKDICISDRRYQLCMKELTNLVNNTRTHSHNDITFLKLNLKRKLMYDAAVEGDLLLKKNNYQYNKEFCKDIRWGLGDFGDIIMGTNMEGIGYSQVVENNLRSIFGTDEKAKQDRKQWWNESKEHIWRAMMFSLRSRLKEKFVWICKKDVTLKVEPQIYRWIREWGRDYMSELPKEQGKLNEKCASKLYYNNMAICMLPLCHDACKSYDQWITRKKKQWDVLSTKFSSVKKTQKIGTENIATAYDILKQELNGFKEATFENEINKRDNLYNHLCPCVVEEARKNTQENVKNVGSGVESKAASSNPITE | soluble |
| MVIRPVERSDVSALMQLASKTGGGLTSLPANEATLSARIERAIKTWQGELPKSEQGYVFVLEDSETGTVAGICAIEVAVGLNDPWYNYRVGTLVHASKELNVYNALPTLFLSNDHTGSSELCTLFLDPDWRKEGNGYLLSKSRFMFMAAFRDKFNDKVVAEMRGVIDEHGYSPFWQSLGKRFFSMDFSRADFLCGTGQKAFIAELMPKHPIYTHFLSQEAQDVIGQVHPQTAPARAVLEKEGFRYRNYIDIFDGGPTLECDIDRVRAIRKSRLVEVAEGQPAQGDFPACLVANENYHHFRVVLARTDPATERLILTAAQLDALKCHAGDRVRLVRLCAEEKTA | not soluble |
| MVITKHFAIHGKSYRRKLIKYILNPEKTNNLALVSDYGMKNFLDFPSYEEMVQMYHENFISNDTLYDFRHDRMEENQRKIHAHHIIQSFSPEDHITPEQINRIGYETVKELTGGKFRFIVATHVDKDHLHNHIIINSVDSNSDKKLKWDYKVERNLRMISDRFSKIAGAKIIENRYSHQRYEVYRKTNHKYELKQRLYFLMEHSRDFEDFKKNAPLLHVEMDFRHKHATFFITDSTMKQVVRGKQLNRKQPYTEEFFKNYFAKREIESLMEFLLLKVENMDDLLQKAKLFGLTINPKQKHVSFQFAGVEVKETELDQKNLYDVEFFQDYFKNRKDWQAPETEDFVQLYQEEKLSKEKELPSDEKFWESYQEFKSNRDAVHEFEVELSLNQIEKVVDDGIYVKVKFGIRQEGLIFVPNMQLDMEEDKVKVFIRETSSYYVYHKDAAEKNCYMKGRTLIRQFSYENQTIPLRRKATVDMIKEKIAEVDALIELEVENQSYVTIKDELVHELAASELRINELQERMSTLNQVAEYLLASVESKQEMKLNLSKLNITENISANIVEKKLKSLGNQLELERGRYEKMVVRLDKFINRLNTGLSKGDGIDFQK | not soluble |
| MVKDCSYSILLPTYNERENLPYILYFIEEVFESMGERYEVIVVDDNSPDGTLEVAKKLQQVFGSDKVVLAPRAGKLGLGSAYSHGLQFAKGNFIIIMDADLSHHPKYIADFVRKQREGSFDVVTGTRYRGEGGVFGWNWRRKLTSVGANLLAQLLLNPGVSDLTGSFRLYRRQAFEQLIHRTRSKGYVFQMEIIVLAKKLGLRVGEVPIVFIDRLYGESKLGGREVIQYLSGLLCLMFQK | soluble |
| MVKEGWMVHYTSRDNLRKRHYWRLDSKCLTLFQNESGSKYYKEIPLSEILRISSPRDFTNISQGSNPHCFEIITDTMVYFVGENNGDSSHNPVLAATGVGLDVAQSWEKAIRQALM | soluble |
| MVKLHLKTTCREVPIEEIISTGQIQFFKHLSESTSEFKDQKNVERFRLIYNGRALNEESLKKITDADSIRVVLLPPLKTNNHIEEEQKNRISIALKECTAPYTRPNDRRLHGFNHDFALPDHMTTLLEKHPQLVHDNQFLSVLSDWSLFRAYCVQNDFKDDPIRGQFMYTNPDFLKVVENILSTVGSRYGYENLDYANVERNRPGMLAAQRPIGGAQPVTHALLQNALQAALANIAVPPANRVPAPANVQPAQQQQEEPMQQGYEQQAATLREFGFENDELIQLALEQANGDVQAAMEFLIDLQN | not soluble |
| MVKRAKLINDVVELIPIFHLLSTETYRKVYNALLEGWYTARELEEMIGEGYRDALRILKNAGMLEAKWRMPSDPGGKPEKEYHVSYTHVSANFYISLKDLNKVLEVVFMSDDEVEEYVREIIKEIEAGRTSVTYITKDLNLDPLFLRAIAKRSLKLNLKGQLIELAKDEEI | not soluble |
| MVKRTVATNGDASGAHRAKKMSKTHASHIINAQEDYKHMYLSVQPLDIFCWGTGSMCELGLGPLAKNKEVKRPRLNPFLPRDEAKIISFAVGGMHTLALDEESNVWSWGCNDVGALGRDTSNAKEQLKDMDADDSSDDEDGDLNELESTPAKIPRESFPPLAEGHKVVQLAATDNMSCALFSNGEVYAWGTFRCNEGILGFYQDKIKIQKTPWKVPTFSKYNIVQLAPGKDHILFLDEEGMVFAWGNGQQNQLGRKVMERFRLKTLDPRPFGLRHVKYIASGENHCFALTKDNKLVSWGLNQFGQCGVSEDVEDGALVTKPKRLALPDNVVIRSIAAGEHHSLILSQDGDLYSCGRLDMFEVGIPKDNLPEYTYKDVHGKARAVPLPTKLNNVPKFKSVAAGSHHSVAVAQNGIAYSWGFGETYAVGLGPFEDDTEVPTRIKNTATQDHNIILVGCGGQFSVSGGVKLSDEDAEKRADEMDD | soluble |
